In patent US20230349919A1:

Legend:
[1] = molecular target: human IL-6Rα (hIL-6Rα), barcoded negative control antigen (human) (UniProt P08887); assay: barcoded-antigen count on source cell (scRNA-seq)
[2] = molecular target: human IL-4Rα (hIL-4Rα) monomeric protein (human) (UniProt P24394); assay: barcoded-antigen count on source cell (scRNA-seq)

human IL-6Rα (hIL-6Rα), barcoded negative control antigen (human), sequence (P08887 20-358 limits assumed): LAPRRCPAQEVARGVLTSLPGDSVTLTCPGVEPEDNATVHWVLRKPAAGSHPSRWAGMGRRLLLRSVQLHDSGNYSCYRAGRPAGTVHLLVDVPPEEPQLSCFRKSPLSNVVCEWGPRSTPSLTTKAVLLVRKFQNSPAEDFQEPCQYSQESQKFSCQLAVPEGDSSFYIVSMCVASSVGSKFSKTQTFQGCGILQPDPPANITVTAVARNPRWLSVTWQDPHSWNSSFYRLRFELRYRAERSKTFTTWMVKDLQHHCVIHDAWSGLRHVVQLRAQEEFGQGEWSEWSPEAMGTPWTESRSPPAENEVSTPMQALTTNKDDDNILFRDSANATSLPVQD

REGN78.L15 ab raw [1] [counts] | REGN560.L15 ab raw [2] [counts] | Binder
– | 924 | Table 1 Line # 50 antibody (SP_Plasma_cell) (antibody, human IgG4, V domains shown) VH: EVKLLESGGGLVQPGGSLRLSCAASGFSFSTYAMNWVRQAPGKGLEWVSAITGSGGSTYYADSVKGRFTMSRDNSKNTLYLQMNSLRAEDTAVYYCAKDRRGAFDIGGQGTMVTVSS VL: DIQMTQSPSSVSASVGDRVTITCRASQGISSWLAWYQQKPGKVPKFLIYAASNLQSGVPSRFSGSGSGTDFTLTISSLQPEDFATYYCQQANSFPFTFGPGTKVDIK
26 | – | Table 1 Line # 54 antibody (SP_Plasma_cell) (antibody, human IgG4, V domains shown) VH: QVQLVQSGAEVKKPGASVKVSCKASGYTFTNYGISWVRQAPGQGLEWMGWISVYNGNTNYAQKLQGRVTMTTDTSTSTAYMEVRSLRSDDTAVYYCARGVNWNYVFDYWGQGTLVTVSS VL: DIQMTQSPSSLSASVGDRVTITCRASQGIRNDLGWYQQKPGKAPKRLIYVVSSLQSGVPSRFSGSGSGTEFTLTISSLQPEDFATYYCLQHNSYPWTFGQGTKVEIK
115 | – | Table 1 Line # 11 antibody (BM_Plasma_cell) (antibody, human IgG4, V domains shown) VH: EVQLVESGGGLVQPGRSLRLSCAASGFTFDDYAMHWVRQAPGKGLEWVSGISWNSGSIGYADSVKGRFTISRDNAKNSLYLQMNSLRAEDTALYYCARDYSSAWYGYFDSWGQGTLVTVSS VL: DIQMTQSPSSLSASVGDRVTITCRASQGINNYLAWYQQKPGKIPKLLIFTASTLQSGVPSRFSGSGSGTDFTLTINSLQPEDVATYYCQNYNSVPRTFGQGTKVEIK
158 | – | Table 1 Line # 15 antibody (BM_Plasma_cell) (antibody, human IgG4, V domains shown) VH: EVQLVESGGALVQPGRSLRLSCAASGFAFDDYAMHWVRQAPGKGLEWVSGISWNGASLGYADSLKGRFTISRDNAKNSLYLQMNSLRSEDTALFYCARDYSSAWYGYFDYWGQGTLVTVSS VL: DIQMTQSPSSLSASVGDRVTITCRASQDISNYLAWYQQKPGKVPKLLIYAASTLQSGVPSRFSGSGSGTDFTLTISSLQPQDVATYYCQNYNSVPRTFGQGTKVEIK
179 | 9180 | Table 1 Line # 30 antibody (SP_B_cell) (antibody, human IgG4, V domains shown) VH: EVQLVESGGGMVQPGRSLRLSCAASGFTFDDYAMHWVRQAPGKGLEWVSGIKWNGGNIGYADSVKDRFTISRDNAKNSLFLQMNSLRAEDAALYSCAKDIGGSQYALDVWGQGTTVTVSS VL: DIQMTQSPSSLSASVGDRVTITCRASLSIGSYLNWYQKKPGKAPKLLIFVASSLQGGVSSRFSGSGSGTDFTLTISSLQPEDFATYYCQQTYSTPFTFGPGTKVDIK
17 | 3560 | Table 1 Line # 39 antibody (SP_B_cell) (antibody, human IgG4, V domains shown) VH: EVQLVESGGDLVQPGRSLRLSCAASGFTFDDYAMYWVRQTPGKGLEWVSRITWNSGSIGYAGSVQGRFTISRDNAKNSLYLQMNSLRAEDSALYYCAKDIGGSYLGFDYWGQGTLVTVSS VL: EIVLTQSPGTLSLSPGERVTLSCRASQSVSATYFAWYQQKPGQPPRLLIYGASNRATGIPDRFSGSGSGTDFTLTISRLEPEDFAVYYCQQNGNSYTFGQGTILEIK
236 | – | Table 1 Line # 3 antibody (BM_Plasma_cell) (antibody, human IgG4, V domains shown) VH: EVQLVESGGGLVQPGRSLRLSCAASGFTFDDYAMHWVRQVTGKGLEWVSGINWNSGNIGYADSVRGRFTISRDNAKNSLYLQMNSLRAEDTALYYCAKDSGSSWYGYFDLWGRGTLVTVSS VL: DIQMTQSPSTLSASVGDRVTITCRASQSISRWLAWYQQKPGKAPKFLIYKASSLESGVPSRFSGSGSGTEFTLTISSLQPDDFATYYCQQYNSDSRTFGQGTKVEIK
66 | 6050 | Table 1 Line # 38 antibody (SP_B_cell) (antibody, human IgG4, V domains shown) VH: EVHLVESGGGLAKPGGSLRLSCTASGFTFSTYNLNWVRQAPGKGLEWVSYISRSSVYIYYADSLKGRFTISRDDAKNSLYLQMNSLRAEDTAVYYCVRDDYGDYVPLDYWGQGTLVTVSS VL: AIQMTQSPSSLSASVGDRITITCRASQGISNDLGWYQQKPGKAPKLLIFAASSLQSGVLSRFSGSGSGTDFTLTISSLQPEDVATYFCLQDYNFPRTFGQGTKVEIK
1 | – | Table 1 Line # 40 antibody (SP_Plasma_cell) (antibody, human IgG4, V domains shown) VH: QVQLQESGPGLVKPSETLSLTCTISGGSISTYYWSWIRQPPGKGLEWIGYIYYSGNTNYNPSLKSRVTISVDTSKNQFSLKLNSVTAADTAVYYCARHRGSYVYGMDVWGQGTTVTVSS VL: DIQMTQSPSSLSASLVDRVTITCRASQTISSYLNWYQQKPGKAPKLLIYGASILQSGVPSRFSGSGSGTDFTLTISSLQPEDHAVYFCQQSYSSPTFGGGTKVEIK

More lines, now with the values behind:

Binder | REGN78.L15 ab raw [1] [counts] | REGN560.L15 ab raw [2] [counts]
Table 1 Line # 37 antibody (SP_B_cell) (antibody, human IgG4, V domains shown) VH: QVHLVESGGDVVQPGRSLRLSCAASGFTFSYYGMHWVRQAPFKGLEWVAVIWYDGSNKYYADSVKGRFTITRDNSKNTVYLQMNSLRAEDTAIYYCARWGGFGVTGTHLDYWGQGTLVTVSS VL: DIQLTQSPSLLSASVGDRVTITCWASQDIAGHFAWYQQKPGTVPKLLIYAISTLDSGVPSRFSGSRSGTEFTLTISSLQPEDFATYYCQHLNSYPYTFGQGTKLEIK | 60 | –
Table 1 Line # 35 antibody (SP_B_cell) (antibody, human IgG4, V domains shown) VH: EVQLVESGGGLVKPGGSLRLSCAASGFTFSSYSMNWVRQAPGKGLEWVSSISSSSSYIYYADSVKGRFTISRDNAKNSLYLQMNSLRAEDTAVYYCARDRSSSPLENWGQGTLVTVSS VL: DIQMTQSPSSVSASVGDRVTITCRASQGISSWLAWYQQKPGKAPKLLIYAASSLQSGVPSRFSGSGSGTDFTLTISSLQPEDFATYYCQQANSFPITFGQGTRLEIK | 33 | –
Table 1 Line # 1 antibody (BM_Plasma_cell) (antibody, human IgG4, V domains shown) VH: EVQLVESGGGLVKPGGSLRLSCAASGFTFSSYSMNWVRQAPGKGLEWVSSISSSSSYIYYADSVKGRFTISRDNAKNSLYLQMNSLRAEDTAVYYCASLAARPFWGQGTMVTVSS VL: DIQMTQSPSSVSASVGDRVTITCRASQGISSWLAWYQQKPGRAPKLLIYAASSLQSGVPSRFSGSGSGTDFTLTISSLQPEDFATYYCQQANSFPLTFGGGTKVEIK | 271 | –
Table 1 Line # 48 antibody (SP_Plasma_cell) (antibody, human IgG4, V domains shown) VH: EVQLVESGGVLVQPGRSLRLSCAASGFTFDDFAMHWVRQAPGKGLEWVSGISWNGNSIGYADSVKGRFTISRDNAKNSLYLQMNSLRTEDTALYYCAKDTSSWSYYYGMDVWGQGTTVTVSS VL: DIQMTQSPSSLSASVGDRVTITCRASQGIRNDLGWYQQKPGKAPKRLIYAASNLQSGVPSRFSGSGSGTEFTFTISSLQPEDFATYYCLQHNSYPYTFGQGTKLEIK | 17 | 1240
Table 1 Line # 53 antibody (SP_Plasma_cell) (antibody, human IgG4, V domains shown) VH: EIQLVESGGGLVQPGRSLRLSCAASGFTFDDYAMHWVRQAPGKGLEWVSGINWNNGSLGYADSVKGRFTISRDNAKNSLYLQMNSLRTEDTALYYCVKDTGSWASYYGMDVWGHGTTVTVSS VL: DIQMTQSPSSLSASIGDRVTITCRASQGIRNDLGWYQQKPGKAPKRLIYAASSLQSGVPSRFSGSGSGTEFTLTISSLQPEDFATYYCLQHNSYPYTFGQGTKLEIK | 5 | –
Table 1 Line # 12 antibody (BM_Plasma_cell) (antibody, human IgG4, V domains shown) VH: QVQLVESGGGVVQPGRSLRLSCAASGFTFSSYGMHWVRQAPGKGLEWVSVISYDGSNKYYADSVKGRFTISRDNSKNTLFLQVNSLRAEDTAVYYCAKEGRTGFDYWGQGTLVTVSS VL: DIQMTQSPSSLSASVGDRVTITCRARQGISNYLAWFQQKPGKVPKLLIYAASTLQSGVPSRFSGSGSGTDFTLTISSLQPEDVATYYCQKYNSAPWTFGQGTKVEIK | 348 | –
Table 1 Line # 49 antibody (SP_Plasma_cell) (antibody, human IgG4, V domains shown) VH: EVHLLESGGGFIQPGGSLRLSCAASGFTFSTYAMNWVRLAPGKGLEWVSTISGSGGFTSYTDSVQGRFTISRDNSKNKLYLQINNLTAEDTAVYYCAKDRRIVGATGFDYWGQGALVTVSS VL: DIQMTQSPSSLSASAGDRVTITCRASQSISSYLNWYQQKPGKAPKLLIYAASSLQSGVPSRFSGSGSGTDFTLTISSLQPEDSATYYCQQSYGFHTFGQGTRLEIK | 2 | –
Table 1 Line # 18 antibody (BM_Plasma_cell) (antibody, human IgG4, V domains shown) VH: EVQLVQSGAEVKKPGESLKISCKGSGYRFTTNWIGWVRQMPGKGLEWMGIIYPDDSDTRYSPSFQGQVTISADKSINTAYLHWNSLKSSDTAIYYCARGANWFDPWGQGTLVTVSS VL: EIVLTQSPGILSLSPGKRATLSCRASQSVSSNFLAWYQQKPGQAPRLLIYGTSSRANGIPDRFSGSGSGTDFTLTISGLEPEDFAEYYCQQYGSSVTFGQGTRLEIK | 55 | –
Table 1 Line # 46 antibody (SP_Plasma_cell) (antibody, human IgG4, V domains shown) VH: EVQLEASGGDLVQPGRSLRLSCAASGFIFDDFGMHWVRQAPGKGLEWVSGISWNGGHIGYADSVKGRFTISRDNAKNSLYLQMNSLRAEDTALYYCAKEHSSSWYGFFDFWGRGTLVTVSS VL: DIQMTQSPSSLSASVGDRVTITCRASQGLSNSVAWYQQKPGQIPRLLISAAASLQSGVPSRFSGSGSGTDFTLTISRLQPEDVATYYCQNYNSAPRTFGQGTNVEIK | 2 | –
Table 1 Line # 47 antibody (SP_Plasma_cell) (antibody, human IgG4, V domains shown) VH: ELQLVESGGGLVQPGRSLRLSCAASGFPFDAYAMHWVRQAPGKGLQWVSGIRWNGGNIDYVDSVKGRFTISRDNAKNSLYLQLNSLRSEDTALYYCAKDLGGSHYALDVWGQGTMVTVSS VL: DIQMTQSPSSLSASVGARVTITCRASQSINNDLNWYQQKPGKAPKFLIYAASSLQSGVPSRFSGRGSGTDFTLTIRSLQPEDFAVYYCQQTYSSPFTFGPGTKVDLK | 6 | 1520
Table 1 Line # 22 antibody (SP_B_cell) (antibody, human IgG4, V domains shown) VH: EVQLVESGGGLVQPGRSLRLSCAASGFTFDDYAMYWVRQIPGKGLEWVSGITWNSGSIGYAGSVQGRFTISRDNAKNSLYLQMNSLRVEDTALYYCAKDIGGSYLGFDYWGQGALVTVSS VL: ETVLTQSPGTLSLSPGERVTLSCRASQSVSSTYLAWYQQKPGQAPRLLIYGASNRATGIPDRFSGSGSGTDFTLTISRLEPEDFAVYYCQQYGSSYTFGQGTKLEIK | 5 | 14000
Table 1 Line # 33 antibody (SP_B_cell) (antibody, human IgG4, V domains shown) VH: EVQLLESGGGLVQPGGSLRLSCAASRFTFSNYEMNWVRQAPGKGLEWLSYINTSGTTIYYADSVKGRFTISRDNAKNSLYLQMNSLRAEDTAVYYCARVNWNSDAFDIWGQGTMVTVSS VL: EIVMTQSPATLSVSPGERATLSCRASQIVGSNLAWYHQKPGQAPRLLIYSASTRATGIPARFSGSGSGTEFTLTISSLQSEDFAVYYCQQYNNWPPFTFGPGTKVDIK | 106 | 7340
